In patent US20150104466A1, “CYTOMEGALOVIRUS DISINTEGRIN-LIKE PEPTIDES” (priority 2013, published 2015):

What was measured:
[1] = system: diI-labeled HCMV; assay type: cell-based, Human cytomegalovirus; details: gBDLD or BSA 320 μg/mL, soluble heparin 50 μg/mL; 24 hours post-infection
[2] = target: Normal human dermal fibroblasts; assay: Protein binding assay: gBDLD binding to human fibroblasts (His-tag ELISA)
Protocol: Normal human dermal fibroblasts were chilled to 4° C., washed three times with cold MES buffer and blocked with 1 mg/mL bovine serum albumin (BSA) for 30 minutes at 4° C. Unbound BSA was removed with cold MES washes (×4). The indicated amounts of gBDLD were added to each well for 90 minutes at 4° C. Cells were then washed three times with cold MES, twice with cold (phosphate-buffered saline (PBS) and fixed with 3% paraformaldehyde. An ELISA was then performed probing with anti-His rabbit polyclonal antibody (Santa Cruz Biotechnology, Santa Cruz, Calif.) and anti-rabbit HRP (Pierce). Absorbance was measured at 405 nm.
FIG. 7 is a graph depicting the results of a gBDLD binding assay (performed as described previously). Here, binding was measured by absorbance at 405 nm. […] To generate the data, human fibroblasts were incubated with gBDLD for the indicated times at 4° C. Cells were then washed, fixed and an ELISA was performed probing for the gBDLD […] his-tag. […]
FIG. 8 is a graph depicting gBDLD binding to human fibroblasts. As is readily apparent from FIG. 8, this binding is dose-dependent and saturable. […] After three IVIES washes and two PBS washes, cells were fixed in 3% paraformaldehyde and a His-tag ELISA was performed to quantitate gBDLD bound to cells.

[3] = Solubility of gBDLD in MES buffer; assay type: physicochemical; details: 55 mM MES, pH 5.5, 300 mM NaCl
Protocol: DNA sequence corresponding to amino acids 57-146 of HCMV AD169 glycoprotein B disintegrin-like domain (“gBDLD”) was cloned into the bacterial expression vector pET-28a containing an N-terminal His-Tag with thrombin cleavage site and kanamycin resistance. (Commercially available from Novagen, San Diego, Calif.) gBDLD production was induced by the addition of 1 mM isopropyl-βD-thiogalactopyranoside (IPTG). E. coli Tuner strain containing pET-28a:gBDLD was grown at 37° C. in Luria-Bertani medium containing kanamycin (50 μg/mL) to an optical density at 600 nm of approximately 0.6. IPTG (1 mM) was added and the plates were incubated continuously for 4 h at 37° C. Cells were harvested by centrifugation at 4000 r/min for 10 min and pellets were resuspended in 1% Triton X-100/Ni-NTA buffer (300 mM NaCl/50 mM Tris-HCL pH 7.9) and lysed by 3×60 s bursts of sonication. The lysate was centrifuged at 15,000 r/min for 15 minutes at 4° C. The 8M urea/Ni-NTA fraction was then poured into a chromatography column containing nickel-nitriloacetic acid agarose (Ni-NTA) beads at 4° C. and allowed to flow through. […] Fractions containing protein were determined by measuring the absorbance of each fraction at 214 nm. Fractions that corresponded to absorption peaks were analyzed by sodium dodecyl sulfate polyacrylamide electrophoresis (SDS-PAGE) to determine the size of the protein. […]

[4] = system: NHDF cells; assay: Cytoskeletal rearrangement in NHDF cells (actin staining with phalloidin); assay type: cell-based, human; details: compared to buffer alone
Source text: gBDLD Triggers Cytoskeletal Rearrangements: β1 integrins are known inducers of broad signal transduction events. […] To test the role of gBDLD in mediating signaling events, we stimulated NHDF cells with buffer alone, gBDLD, or a known cytoskeletal reorganizer (EGF), followed by actin staining with phalloidin.

[5] = target: T1, β1 integrin (Homo sapiens, UniProt P05556); assay: Integrin co-immunoprecipitation assay, Western blot for β1 integrin; assay type: binding; details: human fibroblast lysates, nickel beads
T1 construct: endogenous in cells; host or cells: Normal Human Dermal Fibroblasts (NHDF), 1% TX-100 lysate
Protocol: (§1) A T-175 flask of NHDFs was grown to complete confluence, washed three times in MES buffer and lysed in 1 mL MES buffer+1% TX-100 (a detergent). Lysate was spun at 10,000 g for 10 minutes to remove cell debris. Cell lysate (350 μL) was then incubated with 20 μg gBDLD for 4 hours at 4° C. The lysate+gBDLD mixture was then incubated with 50 μL Ni beads overnight at 4° C. Nickel beads were then washed three times and protein eluted by boiling and then adding reducing SDS-PAGE buffer. Proteins were separated by SDS-PAGE and Western blotted for β1 integrin (Chemicon-1965) or β3 (Chemicon) as previously described.^48
(§2) To identify the cellular receptor for gBDLD we performed co-immunoprecipitation studies. Briefly, gBDLD was incubated with human fibroblast lysates and pulled down with nickel-conjugated agarose beads.
(§3) Because gBDLD contains a known β1 integrin binding motif, gBDLD bound to its cellular receptor was isolated by SDS-PAGE and then Western blotted for either β1 or β3 integrin. The resulting gels are shown in FIG. 10 (β1) and FIG. 11 (β3).

[6] = target: T2, β3 integrin (Homo sapiens, UniProt P05106); assay: Integrin co-immunoprecipitation assay, Western blot for β3 integrin; assay type: binding; details: human fibroblast lysates, nickel beads
T2 construct: endogenous in cells; host or cells: Normal Human Dermal Fibroblasts (NHDF), 1% TX-100 lysate
Protocol: as §1, §2, §3

T1 sequence (P05556 21-798): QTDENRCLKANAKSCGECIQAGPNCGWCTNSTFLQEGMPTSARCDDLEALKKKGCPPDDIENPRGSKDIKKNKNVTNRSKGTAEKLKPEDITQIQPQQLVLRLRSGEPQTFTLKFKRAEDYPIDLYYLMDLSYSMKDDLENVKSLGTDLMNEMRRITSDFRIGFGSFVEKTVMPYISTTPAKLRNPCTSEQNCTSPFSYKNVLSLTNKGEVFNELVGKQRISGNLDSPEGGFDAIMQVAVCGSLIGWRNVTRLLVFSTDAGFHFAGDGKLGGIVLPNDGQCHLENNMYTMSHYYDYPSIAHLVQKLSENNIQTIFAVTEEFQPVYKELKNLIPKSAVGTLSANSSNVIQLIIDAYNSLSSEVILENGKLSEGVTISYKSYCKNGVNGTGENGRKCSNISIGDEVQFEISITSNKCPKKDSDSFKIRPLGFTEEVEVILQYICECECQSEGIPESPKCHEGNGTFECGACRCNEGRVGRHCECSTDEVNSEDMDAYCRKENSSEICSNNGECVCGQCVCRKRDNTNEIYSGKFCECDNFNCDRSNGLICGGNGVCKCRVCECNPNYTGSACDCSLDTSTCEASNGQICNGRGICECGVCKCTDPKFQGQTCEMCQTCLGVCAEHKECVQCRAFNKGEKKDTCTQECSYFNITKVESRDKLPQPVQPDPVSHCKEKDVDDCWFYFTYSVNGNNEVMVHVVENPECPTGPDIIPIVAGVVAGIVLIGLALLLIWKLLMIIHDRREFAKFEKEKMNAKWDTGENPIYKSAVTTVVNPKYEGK
T2 sequence (P05106 27-788): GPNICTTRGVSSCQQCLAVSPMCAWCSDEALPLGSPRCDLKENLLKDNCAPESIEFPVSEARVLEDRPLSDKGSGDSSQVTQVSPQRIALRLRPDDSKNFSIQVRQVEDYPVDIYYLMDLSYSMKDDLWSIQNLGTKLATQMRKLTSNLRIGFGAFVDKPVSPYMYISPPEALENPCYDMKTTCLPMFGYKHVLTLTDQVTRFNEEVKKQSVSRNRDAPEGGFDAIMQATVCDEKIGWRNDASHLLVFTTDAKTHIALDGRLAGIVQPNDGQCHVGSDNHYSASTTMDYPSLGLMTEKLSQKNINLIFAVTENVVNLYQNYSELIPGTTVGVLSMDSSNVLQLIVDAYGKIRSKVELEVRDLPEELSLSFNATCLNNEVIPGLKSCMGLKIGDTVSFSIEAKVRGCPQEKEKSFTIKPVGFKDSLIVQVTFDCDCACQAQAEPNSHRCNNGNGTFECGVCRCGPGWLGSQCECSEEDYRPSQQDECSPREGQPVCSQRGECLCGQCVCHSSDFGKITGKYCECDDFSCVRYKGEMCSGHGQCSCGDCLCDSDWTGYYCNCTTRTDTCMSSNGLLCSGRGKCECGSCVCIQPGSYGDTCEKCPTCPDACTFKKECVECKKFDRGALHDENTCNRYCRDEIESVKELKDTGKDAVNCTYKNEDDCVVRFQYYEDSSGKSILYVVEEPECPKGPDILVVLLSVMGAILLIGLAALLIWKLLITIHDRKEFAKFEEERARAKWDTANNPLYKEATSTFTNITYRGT
T2 sequence (P06756 31-889 partner limits assumed): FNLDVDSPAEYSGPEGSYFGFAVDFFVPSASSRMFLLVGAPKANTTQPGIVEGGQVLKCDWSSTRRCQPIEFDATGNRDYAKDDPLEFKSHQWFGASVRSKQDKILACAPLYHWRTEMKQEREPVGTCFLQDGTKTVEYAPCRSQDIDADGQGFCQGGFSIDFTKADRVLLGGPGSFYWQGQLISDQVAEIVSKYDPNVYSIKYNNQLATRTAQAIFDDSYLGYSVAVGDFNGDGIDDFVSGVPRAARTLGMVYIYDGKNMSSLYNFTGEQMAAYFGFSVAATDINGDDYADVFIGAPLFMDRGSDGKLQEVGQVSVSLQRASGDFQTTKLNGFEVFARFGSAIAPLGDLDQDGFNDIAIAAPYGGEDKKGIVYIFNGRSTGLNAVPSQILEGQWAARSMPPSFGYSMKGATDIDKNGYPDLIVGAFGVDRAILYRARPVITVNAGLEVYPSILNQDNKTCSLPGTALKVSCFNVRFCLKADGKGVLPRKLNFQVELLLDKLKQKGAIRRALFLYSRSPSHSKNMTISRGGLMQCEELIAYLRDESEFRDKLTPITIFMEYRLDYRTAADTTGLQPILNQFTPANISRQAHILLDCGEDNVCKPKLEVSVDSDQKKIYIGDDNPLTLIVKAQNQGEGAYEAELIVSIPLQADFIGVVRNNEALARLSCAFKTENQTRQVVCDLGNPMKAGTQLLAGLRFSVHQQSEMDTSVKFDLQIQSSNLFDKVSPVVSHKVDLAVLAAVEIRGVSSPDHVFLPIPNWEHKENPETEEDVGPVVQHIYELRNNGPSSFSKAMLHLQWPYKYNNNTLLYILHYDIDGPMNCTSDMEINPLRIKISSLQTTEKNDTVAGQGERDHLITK
T2 sequence (P06756 891-1048 partner limits assumed): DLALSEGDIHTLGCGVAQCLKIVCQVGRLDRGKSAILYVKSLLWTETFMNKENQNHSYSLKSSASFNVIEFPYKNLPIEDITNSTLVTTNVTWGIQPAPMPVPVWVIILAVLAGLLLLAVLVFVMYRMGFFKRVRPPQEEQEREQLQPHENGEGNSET

B1: gBDLD: amino acids 57-146 of HCMV AD169 glycoprotein B disintegrin-like domain, His-tagged, expressed in E. coli (protein)
chain: VTSSEAVSHRANETIYNTTLKYGDVVGVNTTKYPYRVCSMAQGTDLIRFERNIICTSMKPINEDLDEGIMVVYKRNIVAHTFKVRVYQKV
modifications: left off: small tags and cut ends
notes: amino acids 57-146 of HCMV AD169 glycoprotein B disintegrin-like domain, His-tagged, expressed in E. coli
- block of HCMV fusion and gene expression [1]: complete block of HCMV fusion and gene expression
- kinetics of gBDLD binding to human fibroblasts ([2]; 4° C., absorbance at 405 nm): rapid kinetics
- concentration at which binding to fibroblast monolayers reached saturation ([2]; 60 minutes, after BSA blocking): 12.5 µg/mL
- Solubility [3]: approximately 1 mg/mL
- reorganization of the cytoskeleton [4]: triggered a dramatic reorganization of the cytoskeleton
- interaction with β1 integrin (pull down) [5]: interacts with β1 integrins
- interaction with β3 integrin (pull down) [6]: does not interact with β3 integrins
